Laboratory results published in article PMC4434323.

target: T1, C07E3.6 (C07E3.6) (Caenorhabditis elegans) (UniProt Q17792)
T1 sequence: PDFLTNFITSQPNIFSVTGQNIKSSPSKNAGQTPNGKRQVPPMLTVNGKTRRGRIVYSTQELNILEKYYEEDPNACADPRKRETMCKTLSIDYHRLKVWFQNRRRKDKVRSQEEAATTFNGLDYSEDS

Sequence	binding signal (PBM E-score (-0.5 to 0.5))
AGTAATTA (double strand) [8-mer AGTAATTA]	0.494
GCTAATTA (double strand) [8-mer GCTAATTA]	0.496

target: T2, C27D6.4 (C27D6.4) (Caenorhabditis elegans) (UniProt Q4JFH9)
T2 sequence: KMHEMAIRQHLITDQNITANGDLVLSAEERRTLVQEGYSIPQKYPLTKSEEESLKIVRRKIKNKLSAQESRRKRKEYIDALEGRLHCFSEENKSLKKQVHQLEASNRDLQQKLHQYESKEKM

Sequence	binding signal (PBM E-score (-0.5 to 0.5))
ACGTGGCA (double strand) [8-mer ACGTGGCA]	0.499
ACGTGGCT (double strand) [8-mer ACGTGGCT]	0.492
CACGTGGC (double strand) [8-mer CACGTGGC]	0.499
CCACGTCA (double strand) [8-mer CCACGTCA]	0.496
CCACGTGG (double strand) [8-mer CCACGTGG]	0.499
GCCACGTA (double strand) [8-mer GCCACGTA]	0.497

target: T3, atf-6 (F45E6.2) (Caenorhabditis elegans) (UniProt Q20435)
T3 sequence: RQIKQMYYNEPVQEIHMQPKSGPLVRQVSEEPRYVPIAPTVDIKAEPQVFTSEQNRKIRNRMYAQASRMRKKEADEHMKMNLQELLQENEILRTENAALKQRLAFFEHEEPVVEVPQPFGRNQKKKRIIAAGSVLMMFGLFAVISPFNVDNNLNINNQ

Sequence	binding signal (PBM E-score (-0.5 to 0.5))
ACCACGTA (double strand) [8-mer ACCACGTA]	0.457
ACGTCAGA (double strand) [8-mer ACGTCAGA]	0.476
ACGTGGCA (double strand) [8-mer ACGTGGCA]	0.477
ACGTGGCC (double strand) [8-mer ACGTGGCC]	0.471
ACGTGGCT (double strand) [8-mer ACGTGGCT]	0.466
CACGTCAG (double strand) [8-mer CACGTCAG]	0.473
CACGTGGC (double strand) [8-mer CACGTGGC]	0.464
CCACGTAG (double strand) [8-mer CCACGTAG]	0.478
CCACGTCA (double strand) [8-mer CCACGTCA]	0.488
CCACGTGG (double strand) [8-mer CCACGTGG]	0.48
GCCACGTA (double strand) [8-mer GCCACGTA]	0.48

target: atf-7 (C07G2.2) (Caenorhabditis elegans) (UniProt Q86MD3)
Sequence (Q86MD3 339-508): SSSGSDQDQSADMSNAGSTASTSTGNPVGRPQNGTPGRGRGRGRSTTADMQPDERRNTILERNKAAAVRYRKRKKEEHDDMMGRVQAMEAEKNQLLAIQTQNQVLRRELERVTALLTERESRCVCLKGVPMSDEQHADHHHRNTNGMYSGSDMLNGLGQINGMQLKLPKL

Sequence	binding signal (PBM E-score (-0.5 to 0.5))
CCACGTCA (double strand) [8-mer CCACGTCA]	0.496

target: T4, ceh-34 (C10G8.6) (Caenorhabditis elegans) (UniProt Q94165)
T4 sequence: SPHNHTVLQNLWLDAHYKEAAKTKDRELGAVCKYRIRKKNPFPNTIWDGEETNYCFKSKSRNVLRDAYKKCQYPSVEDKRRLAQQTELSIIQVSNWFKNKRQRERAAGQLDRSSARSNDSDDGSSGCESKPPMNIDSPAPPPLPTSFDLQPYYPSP

Sequence	binding signal (PBM E-score (-0.5 to 0.5))
AAGTATCA (double strand) [8-mer AAGTATCA]	0.468
AGGGTATC (double strand) [8-mer AGGGTATC]	0.466
AGGTATCA (double strand) [8-mer AGGTATCA]	0.474
ATATCCCC (double strand) [8-mer ATATCCCC]	0.474
ATGATACC (double strand) [8-mer ATGATACC]	0.481
GAGTATCA (double strand) [8-mer GAGTATCA]	0.46
GATACCCC (double strand) [8-mer GATACCCC]	0.48
GATATCCC (double strand) [8-mer GATATCCC]	0.466
GGGGGATA (double strand) [8-mer GGGGGATA]	0.463
GGGTATCA (double strand) [8-mer GGGTATCA]	0.49
GGTATCAC (double strand) [8-mer GGTATCAC]	0.476

tested on: ceh-53 (C09G12.1) (Caenorhabditis elegans)
Sequence (chain, as listed by the source): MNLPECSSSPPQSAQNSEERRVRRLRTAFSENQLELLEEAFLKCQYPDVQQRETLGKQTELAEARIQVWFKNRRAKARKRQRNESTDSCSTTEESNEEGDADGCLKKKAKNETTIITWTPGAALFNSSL

Sequence	binding signal (PBM E-score (-0.5 to 0.5))
CGGATTAG (double strand) [8-mer CGGATTAG]	0.496

target: T5, elt-6 (F52C12.5) (Caenorhabditis elegans) (UniProt G5EGN3)
T5 sequence: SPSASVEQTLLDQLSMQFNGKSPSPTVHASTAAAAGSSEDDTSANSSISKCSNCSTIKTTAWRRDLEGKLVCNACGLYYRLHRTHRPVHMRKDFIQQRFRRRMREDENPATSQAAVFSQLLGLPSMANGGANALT

Sequence	binding signal (PBM E-score (-0.5 to 0.5))
GTGATAAA (double strand) [8-mer GTGATAAA]	0.491
GTGATAAC (double strand) [8-mer GTGATAAC]	0.492
TCTTATCA (double strand) [8-mer TCTTATCA]	0.495

target: T6, end-1 (F58E10.2) (Caenorhabditis elegans) (UniProt G5EDN4)
T6 sequence: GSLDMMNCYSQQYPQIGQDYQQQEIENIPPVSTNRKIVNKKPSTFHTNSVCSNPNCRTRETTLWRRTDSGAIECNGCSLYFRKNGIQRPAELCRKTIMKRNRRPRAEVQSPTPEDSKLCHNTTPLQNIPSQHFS

Sequence	binding signal (PBM E-score (-0.5 to 0.5))
AGATAAGA (double strand) [8-mer AGATAAGA]	0.484
AGATAAGG (double strand) [8-mer AGATAAGG]	0.484
ATCTAATC (double strand) [8-mer ATCTAATC]	0.487
ATCTTATC (double strand) [8-mer ATCTTATC]	0.495
CCGATAAG (double strand) [8-mer CCGATAAG]	0.486
CCGATATC (double strand) [8-mer CCGATATC]	0.487
CCTTATCG (double strand) [8-mer CCTTATCG]	0.486
CGATAACG (double strand) [8-mer CGATAACG]	0.483
CGATAAGA (double strand) [8-mer CGATAAGA]	0.487
CGATATCG (double strand) [8-mer CGATATCG]	0.496
GATATCGA (double strand) [8-mer GATATCGA]	0.484
GATATCGC (double strand) [8-mer GATATCGC]	0.487
TATCGATA (double strand) [8-mer TATCGATA]	0.49

target: T7, end-3 (F58E10.5) (Caenorhabditis elegans) (UniProt Q9XUW7)
T7 sequence: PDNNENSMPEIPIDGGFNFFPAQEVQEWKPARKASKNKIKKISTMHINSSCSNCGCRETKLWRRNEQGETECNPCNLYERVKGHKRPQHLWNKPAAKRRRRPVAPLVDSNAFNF

Sequence	binding signal (PBM E-score (-0.5 to 0.5))
AAGATAAG (double strand) [8-mer AAGATAAG]	0.493
AGAGATAA (double strand) [8-mer AGAGATAA]	0.492
AGATAACA (double strand) [8-mer AGATAACA]	0.488
AGATAACG (double strand) [8-mer AGATAACG]	0.49
AGATAAGA (double strand) [8-mer AGATAAGA]	0.496
AGATAAGC (double strand) [8-mer AGATAAGC]	0.493
AGATAAGG (double strand) [8-mer AGATAAGG]	0.496
ATCTTATC (double strand) [8-mer ATCTTATC]	0.497
CAGATAAG (double strand) [8-mer CAGATAAG]	0.491
CTTATCTA (double strand) [8-mer CTTATCTA]	0.493
CTTATCTC (double strand) [8-mer CTTATCTC]	0.496
GAGATAAC (double strand) [8-mer GAGATAAC]	0.487
GATAAGAA (double strand) [8-mer GATAAGAA]	0.488
GGAGATAA (double strand) [8-mer GGAGATAA]	0.49
TCTTATCA (double strand) [8-mer TCTTATCA]	0.491

target: T8, med-2 (K04C2.6) (Caenorhabditis elegans) (UniProt G5EF25)
T8 sequence: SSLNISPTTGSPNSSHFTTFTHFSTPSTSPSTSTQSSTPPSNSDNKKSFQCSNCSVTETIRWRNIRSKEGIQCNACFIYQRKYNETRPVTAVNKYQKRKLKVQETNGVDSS

Sequence	binding signal (PBM E-score (-0.5 to 0.5))
AAAGTATA (double strand) [8-mer AAAGTATA]	0.496
AAGTATAC (double strand) [8-mer AAGTATAC]	0.499
AGGTATAC (double strand) [8-mer AGGTATAC]	0.496
AGTATACA (double strand) [8-mer AGTATACA]	0.498
AGTATACC (double strand) [8-mer AGTATACC]	0.499
AGTATACG (double strand) [8-mer AGTATACG]	0.496
AGTATACT (double strand) [8-mer AGTATACT]	0.5
AGTATCCA (double strand) [8-mer AGTATCCA]	0.495
CAGTATAC (double strand) [8-mer CAGTATAC]	0.498
CGGTATAC (double strand) [8-mer CGGTATAC]	0.495
GAGTATAC (double strand) [8-mer GAGTATAC]	0.499
GGGTATAC (double strand) [8-mer GGGTATAC]	0.496
GGTATACC (double strand) [8-mer GGTATACC]	0.496
GTATACCA (double strand) [8-mer GTATACCA]	0.495
GTATACTA (double strand) [8-mer GTATACTA]	0.499
